Data taken from patent publication US20220315926.
Like-named read-outs stand apart in the source and are kept apart here.

Experiments:
[1] = target: T1, DEN2-NS1 (Thailand/16681/84) (Dengue virus 2) (UniProt P29990); experiment: EMSA
T1 sequence: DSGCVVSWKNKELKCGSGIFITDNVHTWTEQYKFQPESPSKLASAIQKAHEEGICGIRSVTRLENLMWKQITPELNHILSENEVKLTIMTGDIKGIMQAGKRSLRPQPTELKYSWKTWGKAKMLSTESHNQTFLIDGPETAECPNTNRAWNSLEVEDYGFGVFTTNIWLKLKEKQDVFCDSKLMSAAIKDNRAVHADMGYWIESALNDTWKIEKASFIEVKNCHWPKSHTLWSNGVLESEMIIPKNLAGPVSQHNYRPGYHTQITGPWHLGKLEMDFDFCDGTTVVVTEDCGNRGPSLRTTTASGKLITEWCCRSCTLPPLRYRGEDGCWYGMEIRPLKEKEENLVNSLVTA

[2] = target: SIN DEN1-NS1 (Singaporean variant, 96.3% homology) (Dengue virus 1) (UniProt P33478); experiment: SPR; conditions: Ds at both x, 25 C, 150 mM NaCl, 1 mM MgCl2
[3] = target: T1, DEN2-NS1 (Thailand/16681/84) (Dengue virus 2); experiment: SPR
[4] = target: T2, DEN3-NS1 (Sri Lanka D3/H/IMTSSA-SRI/2000/1266) (Dengue virus 3) (UniProt Q6YMS4); experiment: SPR; conditions: Ds at both n; biotin-dT in 3' mini-hairpin
T2 sequence: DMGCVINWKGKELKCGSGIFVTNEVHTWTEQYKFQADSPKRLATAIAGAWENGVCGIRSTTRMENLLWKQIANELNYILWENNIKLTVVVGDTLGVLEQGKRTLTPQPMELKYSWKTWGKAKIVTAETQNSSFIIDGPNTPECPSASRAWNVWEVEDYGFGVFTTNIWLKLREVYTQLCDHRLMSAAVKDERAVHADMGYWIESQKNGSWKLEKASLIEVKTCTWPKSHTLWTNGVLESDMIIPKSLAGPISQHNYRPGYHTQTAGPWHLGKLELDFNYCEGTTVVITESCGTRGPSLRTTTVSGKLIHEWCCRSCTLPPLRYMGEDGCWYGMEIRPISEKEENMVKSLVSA

[5] = target: T3, DEN4-NS1 (Dominica/814669/1981) (Dengue virus 4) (UniProt P09866); experiment: SPR
T3 sequence: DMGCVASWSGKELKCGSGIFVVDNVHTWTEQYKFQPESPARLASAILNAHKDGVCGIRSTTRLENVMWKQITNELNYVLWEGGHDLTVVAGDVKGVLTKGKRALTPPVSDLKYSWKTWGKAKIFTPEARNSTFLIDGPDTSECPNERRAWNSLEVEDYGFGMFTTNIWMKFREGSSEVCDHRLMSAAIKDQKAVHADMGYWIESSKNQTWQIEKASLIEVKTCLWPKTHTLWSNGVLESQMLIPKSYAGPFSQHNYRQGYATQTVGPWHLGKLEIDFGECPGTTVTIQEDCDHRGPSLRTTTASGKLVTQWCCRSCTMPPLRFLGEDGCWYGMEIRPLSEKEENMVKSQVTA

[6] = target: T3, DEN4-NS1 (Dominica/814669/1981) (Dengue virus 4); experiment: EMSA; conditions: Ds at both x; 5' biotin-dT; 2 M urea gel
[7] = target: T4, DEN1-NS1 (Nauru/Western Pacific/1974) (Dengue virus 1) (UniProt P17763); experiment: SPR; conditions: Ds unnatural base at both n; biotin-dT in 3' mini-hairpin CGCG(L)AGCG
T4 sequence: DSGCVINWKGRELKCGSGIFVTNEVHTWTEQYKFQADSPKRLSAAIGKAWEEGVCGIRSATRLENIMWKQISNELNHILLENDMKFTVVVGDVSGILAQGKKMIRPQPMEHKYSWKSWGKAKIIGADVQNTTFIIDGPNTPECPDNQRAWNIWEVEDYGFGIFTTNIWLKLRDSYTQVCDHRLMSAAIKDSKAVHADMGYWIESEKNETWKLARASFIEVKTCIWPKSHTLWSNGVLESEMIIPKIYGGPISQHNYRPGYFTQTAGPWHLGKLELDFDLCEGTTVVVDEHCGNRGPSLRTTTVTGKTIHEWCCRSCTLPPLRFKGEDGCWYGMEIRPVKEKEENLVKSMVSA

[8] = Ds at both n, biotin-dT in 3' mini-hairpin
[9] = two Ds and one diol-Pa, biotin-dT in 3' mini-hairpin

With “GGCTGGTCCGNCTGGGAACAAGNGGCGGGAGGGANGGGTGTGGGTGCGACAAGCGGACCAGCCCGCGTAGCG [D2-1d-72h-d]” the binding signal ([1]; Ds at 11 and 23, biotin-dT in 3' mini-hairpin) was < 10 % shifted.
With “GCACTCCATGATATGGTCTACTGAGCGAGACGATGCTGCTAAANTACGCCGTGGTNACGAAGACAGACAAGCGGAGTGTCGCGTAGCG [19D1F1-3]” the Kd ([2]; biotin-dT in 3' mini-hairpin) was 27 pM.
For “GGCTGGTCCGNCTGGGAACAAGNGGCGGGAGGGANGGGTGTGGGTGCGACAAGCGGACCAGCCCGCGTAGCG [D2-1d-72h (AptD2)]”, the Kd ([3]; Ds at positions 11 and 23, diol-Pa at position 35, biotin-dT in 3' mini-hairpin) was 104 pM.
Sequence “CCGCTTGTCATCTANCCTGGCCNTGTGGTACTGTAACGGCTGACAAGCGGCGCGTAGCG [D3-2-59h (AptD3)]” has a Kd [4] of 57 pM.
Work on “CTCCGCTGTCAAACGGNTATCACGGCNACACACCTGCGGACAGCGGAGCGCGTAGCG [D4-1-57h]” yielded a Kd [5, 8] of 29 pM.
For “TTTTCGCACTCCATGATATGGTCTACTGGTCCGNCTGGGAACAAGNGGCGGGAGGGANGGGTGTGGGTGCGACAAGCGGAGTAGTTAGACCGTCAAA [D2-1y-96]”, the Kd ([3]; two Ds and one diol-Px, 5' biotin) was 41 pM.
With “GGCTGGTCCGNCTGGGAACAAGNGGCGGGAGGGANGGGTGTGGGTGCGACAAGCGGACCAGCCCGCGTAGCG [D2-1d-72h-c]” the binding signal ([1]; Ds at 11, diol-Pa at 35, biotin-dT in 3' mini-hairpin) was < 10 % shifted.
With “GGTCCGNCTGGGAACAAGNGGCGGGAGGGANGGGTGTGGGTGCGACAAGCGGCGCGTAGCG [D2-1d-61h]” the binding signal [1, 9] was > 60 % shifted.
“GACGGTCTACTGGTCCGNCTGGGAACAAGNGGCGGGAGGGANGGGTGTGGGTGCGACAAGCGGAGTAGTTAGACCGTCCGCGTAGCG [D2-1d-87h]” was tested, and the Kd [3, 9] was 105 pM.
For “TGATATGGTCTACTGTATAATCCGCNTTCGTCATGTGGNTTGGATCTGGGTCTGGCAGACAAGCGGAGTAGTTAGACC [D4-4-78]”, the binding signal [6] was > 60 % shifted.
“GGCTGGTCCGNCTGGGAACAAGNGGCGGGAGGGANGGGTGTGGGTGCGACAAGCGGACCAGCCCGCGTAGCG [AptD2e (Cont-D2, natural-base variant)]” was tested, and the binding signal [1] was < 10 % shifted.
“CGGCGGAGACGTAACGCNTATCAAATCNAAACAGCTTAGGGTCCGCCGCGCGTAGCG [D4-3-57h (AptD4)]” gave a Kd [5, 8] of 30 pM.
For “TTTTCGCACTCCATGATATGGTCTACTGGTCCGNCTGGGAACAAGNGGCGGGAGGGANGGGTGTGGGTGCGACAAGCGGAGTAGTTAGACCGTCAAA [D2-1-96(3Ds)]”, the binding signal ([1]; three Ds) was < 10 % shifted.
In the case of “CCCCAGACGGACTGGTGTNCTCGGNATGGCCGTCTGGGGCGCGTAGCG [D1-1-48h (AptD1)]”, the Kd [7] is reported as 182 pM.
For “TGATATGGTCTACTGTCACANATCGCCGTAAAGNCGAAGAGCTGCGGAATCTAAGGTGACAAGCGGAGTAGTTAGACC [D4-2-78]”, the binding signal [6] was > 60 % shifted.
“TGATATGGTCTACTGTGGCGCGAGGGAATCNACGCNTATCAAATANAAACAGCTAATGACAAGCGGAGTAGTTAGACC [D4-3-78]” was tested, and the Kd ([5]; Ds at x (three), 5' biotin-dT) was 34 pM.
For “TTTTCGCACTCCATGATATGGTCTACTGAGCGAGACGATGCTGCTAAANTACGCCGTGGTNACGAAGACAGACAAGCGGAGTAGTTAGACCGTGAAA [19D1F1 (isolate, AptD1b)]”, the Kd ([2]; 5' biotin) was 9.1 pM.
“GGCTGGTCCGACTGGGAACAAGNGGCGGGAGGGANGGGTGTGGGTGCGACAAGCGGACCAGCCCGCGTAGCG [D2-1d-72h(A) (D2-1d-72h-b)]” was tested, and the binding signal ([1]; Ds at position 23, diol-Pa at position 35, biotin-dT in 3' mini-hairpin) was > 40 % shifted.
With “TGATATGGTCTACTGTCTCAACGGTTGTCAAACGGNTATCACGGCNACACACCTGCGGACAAGCGGAGTAGTTAGACC [D4-1-78]” the Kd ([5]; Ds at both x, 5' biotin-dT) was 62 pM.
